The source of these data is patent US20210230570A1 (published 2021).

The test has as its target T1, Factor VIIIa (recombinant FVIII, Kogenate FS, Bayer healthcare, activated with alpha-thrombin) (UniProt P00451 20-2351, limits assumed).
T1 construct: also called FVIIIa; cofactor
T1 sequence (looked up): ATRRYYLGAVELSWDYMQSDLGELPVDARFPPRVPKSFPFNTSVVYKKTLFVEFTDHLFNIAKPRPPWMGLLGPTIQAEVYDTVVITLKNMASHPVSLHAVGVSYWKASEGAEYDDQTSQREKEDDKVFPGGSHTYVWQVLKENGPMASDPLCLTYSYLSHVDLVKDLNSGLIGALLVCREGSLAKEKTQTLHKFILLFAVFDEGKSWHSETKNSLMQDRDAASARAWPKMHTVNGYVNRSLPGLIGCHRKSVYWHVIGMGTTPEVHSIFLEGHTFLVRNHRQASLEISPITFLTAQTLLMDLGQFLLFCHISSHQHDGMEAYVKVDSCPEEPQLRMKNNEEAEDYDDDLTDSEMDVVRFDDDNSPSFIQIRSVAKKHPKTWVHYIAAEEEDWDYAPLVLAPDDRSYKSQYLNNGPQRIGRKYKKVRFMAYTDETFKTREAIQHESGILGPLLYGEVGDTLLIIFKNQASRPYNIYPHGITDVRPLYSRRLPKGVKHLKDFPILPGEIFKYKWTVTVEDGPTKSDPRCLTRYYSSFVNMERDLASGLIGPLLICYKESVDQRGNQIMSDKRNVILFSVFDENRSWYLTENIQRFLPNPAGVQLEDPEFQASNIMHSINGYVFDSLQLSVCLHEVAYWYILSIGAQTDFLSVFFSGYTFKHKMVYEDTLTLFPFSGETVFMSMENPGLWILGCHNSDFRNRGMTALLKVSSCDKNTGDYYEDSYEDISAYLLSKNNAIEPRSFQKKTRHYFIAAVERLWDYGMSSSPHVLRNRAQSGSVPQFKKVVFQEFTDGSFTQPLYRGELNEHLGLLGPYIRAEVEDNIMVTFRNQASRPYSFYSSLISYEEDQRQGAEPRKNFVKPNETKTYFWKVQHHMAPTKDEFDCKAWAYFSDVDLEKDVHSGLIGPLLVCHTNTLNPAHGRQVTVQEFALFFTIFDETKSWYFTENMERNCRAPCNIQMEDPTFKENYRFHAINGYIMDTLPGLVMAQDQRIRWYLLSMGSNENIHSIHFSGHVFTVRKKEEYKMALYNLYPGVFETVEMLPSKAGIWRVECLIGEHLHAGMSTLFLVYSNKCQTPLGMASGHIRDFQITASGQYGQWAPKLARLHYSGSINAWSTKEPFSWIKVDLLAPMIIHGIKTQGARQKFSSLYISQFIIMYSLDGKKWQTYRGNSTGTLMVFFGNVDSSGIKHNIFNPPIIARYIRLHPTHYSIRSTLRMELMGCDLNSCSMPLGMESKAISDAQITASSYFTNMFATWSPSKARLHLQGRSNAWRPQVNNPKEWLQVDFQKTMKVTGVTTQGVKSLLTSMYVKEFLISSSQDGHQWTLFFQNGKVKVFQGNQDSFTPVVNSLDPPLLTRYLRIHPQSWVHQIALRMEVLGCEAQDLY
The experiment in a line: same assay; KD-app of Catalyst Biosciences WT FIXa divided by KD-app of the variant. The procedure:
The molar concentration of FVIII was then determined by absorbance at 280 nm using an extinction coefficient of 1.567 mg⁻¹ mL cm⁻¹ and a molecular weight of 163.6 kDa.

B1: FIXa-Y259F/K265T/Y345T (enzyme)
chain 1: YNSGKLEEFVQGNLERECMEEKCSFEEAREVFENTERTTEFWKQYVDGDQCESNPCLNGGSCKDDINSYECWCPFGFEGKNCELDVTCNIKNGRCEQFCKNSADNKVVCSCTEGYRLAENQKSCEPAVPFPCGRVSVSQTSKLTR
chain 2: VVGGEDAKPGQFPWQVVLNGKVDAFCGGSIVNEKWIVTAAHCVETGVKITVVAGEHNIEETEHTEQKRNVIRIIPHHNFNAAINTYNHDIALLELDEPLVLNSYVTPICIADKEYTNIFLKFGSGYVSGWGRVFHKGRSALVLQYLRVPLVDRATCLRSTKFTITNNMFCAGFHEGGRDSCQGDSGGPHVTEVEGTSFLTGIISWGEECAMKGKYGIYTKVSRYVNWIKEKTKLT
notes: also called Y94F/K98T/Y177T (chymotrypsin numbering)
On to B1, for which the KD-WT/KD-mut amounted to 0.8 ratio.
